Source: doi:10.1101/2025.01.28.635281 (bioRxiv, 2025)

Target: T1, Bacillus subtilis Sfp (Surfactin synthetase activating enzyme, 4'-phosphopantetheinyl transferase) (Bacillus subtilis, UniProt P39135 1-224)
T1 sequence (looked up): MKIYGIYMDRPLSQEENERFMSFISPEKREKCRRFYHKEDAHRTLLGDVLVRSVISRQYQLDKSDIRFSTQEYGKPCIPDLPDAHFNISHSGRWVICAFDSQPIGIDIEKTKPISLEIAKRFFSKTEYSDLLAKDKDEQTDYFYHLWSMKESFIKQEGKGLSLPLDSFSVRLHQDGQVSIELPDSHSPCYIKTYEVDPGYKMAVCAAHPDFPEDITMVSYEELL
Test: NMR titration

binding result: binds
B1: S36A mutant of E. coli acyl carrier protein (natural protein)
chain: STIEERVKKIIGEQLGVKQEEVTNNASFVEDLGADALDTVELVMALEEEFDTEIPDEEAEKITTVQAAIDYINGHQA
